Data: the supplement of paper PMC5998384

Legend:
HeLa Kyoto [1] = assay: solubility in G1/S (NP-40 vs SDS abundance) (log2 ratio); higher = more soluble; settings: cell cycle stage: G1/S
HeLa Kyoto [2] = assay: melting temperature (median over replicates), in situ; higher = more thermally stable
HeLa Kyoto [3] = assay: solubility change mitosis vs G1/S (difference of NP-40 vs SDS log2 ratios) (log2 ratio difference); higher = more soluble in mitosis
HeLa Kyoto [4] = assay: thermal stability score vs G1/S (z-score of summed log2 fold changes over temperatures); higher = more thermally stable than in G1/S
[5] = cell cycle stage: early G1 (4.5 h after nocodazole release)
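For melting temperature (median over replicates), in situ in this document: HeLa Kyoto cells synchronized by double thymidine or nocodazole block, proteins quantified by TMT10plex mass spectrometry, three independent biological replicates.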
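For solubility change mitosis vs G1/S (difference of NP-40 vs SDS log2 ratios) in this document: synchronized HeLa Kyoto cells (double thymidine block for G1/S, nocodazole release for mitosis), protein amounts in NP-40 versus SDS lysates quantified by mass spectrometry, three biological replicates.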
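For solubility in G1/S (NP-40 vs SDS abundance) in this document: HeLa Kyoto cells arrested at G1/S by double thymidine block, proteins quantified by TMT10plex mass spectrometry in mild NP-40 versus SDS extracts, three biological replicates.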
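For thermal stability score vs G1/S (z-score of summed log2 fold changes over temperatures) in this document: synchronized HeLa Kyoto cells, proteins quantified by TMT10plex mass spectrometry, three biological replicates, mitosis taken 0.5 h after nocodazole release, G1/S directly after double thymidine block.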

| Substance | solubility in G1/S (log2) (HeLa Kyoto [1]) | melting temperature (HeLa Kyoto [2]; cell cycle stage: G1/S) [°C] | melting temperature (HeLa Kyoto [2]; cell cycle stage: mitosis) [°C] | solubility change mitosis (log2) (HeLa Kyoto [3]) | thermal stability score (HeLa Kyoto [4]; [5]) | thermal stability score (HeLa Kyoto [4]; cell cycle stage: mitosis) |
| --- | --- | --- | --- | --- | --- | --- |
| MSVACVLKRKAVLWQDSFSPHLKHHPQEPANPNMPVVLTSGTGSQAQPQPAANQALAAGTHSSPVPGSIGVAGRSQDDAMVDYFFQRQHGEQLGGGGSGGGGYNNSKHRWPTGDNIHAEHQVRSMDELNHDFQALALEGRAMGEQLLPGKKFWETDESSKDGPKGIFLGDQWRDSAWGTSDHSVSQPIMVQRRPGQSFHVNSEVNSVLSPRSESGGLGVSMVEYVLSSSPGDSCLRKGGFGPRDADSDENDKGEKKNKGTFDGDKLGDLKEEGDVMDKTNGLPVQNGIDADVKDFSRTPGNCQNSANEVDLLGPNQNGSEGLAQLTSTNGAKPVEDFSNMESQSVPLDPMEHVGMEPLQFDYSGTQVPVDSAAATVGLFDYNSQQQLFQRPNALAVQQLTAAQQQQYALAAAHQPHIGLAPAAFVPNPYIISAAPPGTDPYTAGLAAAATLGPAVVPHQYYGVTPWGVYPASLFQQQAAAAAAATNSANQQTTPQAQQGQQQVLRGGASQRPLTPNQNQQGQQTDPLVAAAAVNSALAFGQGLAAGMPGYPVLAPAAYYDQTGALVVNAGARNGLGAPVRLVAPAPVIISSSAAQAAVAAAAASANGAAGGLAGTTNGPFRPLGTQQPQPQPQQQPNNNLASSSFYGNNSLNSNSQSSSLFSQGSAQPANTSLGFGSSSSLGATLGSALGGFGTAVANSNTGSGSRRDSLTGSSDLYKRTSSSLTPIGHSFYNGLSFSSSPGPVGMPLPSQGPGHSQTPPPSLSSHGSSSSLNLGGLTNGSGRYISAAPGAEAKYRSASSASSLFSPSSTLFSSSRLRYGMSDVMPSGRSRLLEDFRNNRYPNLQLREIAGHIMEFSQDQHGSRFIQLKLERATPAERQLVFNEILQAAYQLMVDVFGNYVIQKFFEFGSLEQKLALAERIRGHVLSLALQMYGCRVIQKALEFIPSDQQNEMVRELDGHVLKCVKDQNGNHVVQKCIECVQPQSLQFIIDAFKGQVFALSTHPYGCRVIQRILEHCLPDQTLPILEELHQHTEQLVQDQYGNYVIQHVLEHGRPEDKSKIVAEIRGNVLVLSQHKFASNVVEKCVTHASRTERAVLIDEVCTMNDGPHSALYTMMKDQYANYVVQKMIDVAEPGQRKIVMHKIRPHIATLRKYTYGKHILAKLEKYYMKNGVDLGPICGPPNGII [PUM1] | 0.186 | 51.5 | 51 | -0.102 | -1.3 | -1.48 |
| MKKFFDSRREQGGSGLGSGSSGGGGSTSGLGSGYIGRVFGIGRQQVTVDEVLAEGGFAIVFLVRTSNGMKCALKRMFVNNEHDLQVCKREIQIMRDLSGHKNIVGYIDSSINNVSSGDVWEVLILMDFCRGGQVVNLMNQRLQTGFTENEVLQIFCDTCEAVARLHQCKTPIIHRDLKVENILLHDRGHYVLCDFGSATNKFQNPQTEGVNAVEDEIKKYTTLSYRAPEMVNLYSGKIITTKADIWALGCLLYKLCYFTLPFGESQVAICDGNFTIPDNSRYSQDMHCLIRYMLEPDPDKRPDIYQVSYFSFKLLKKECPIPNVQNSPIPAKLPEPVKASEAAAKKTQPKARLTDPIPTTETSIAPRQRPKAGQTQPNPGILPIQPALTPRKRATVQPPPQAAGSSNQPGLLASVPQPKPQAPPSQPLPQTQAKQPQAPPTPQQTPSTQAQGLPAQAQATPQHQQQLFLKQQQQQQQPPPAQQQPAGTFYQQQQAQTQQFQAVHPATQKPAIAQFPVVSQGGSQQQLMQNFYQQQQQQQQQQQQQQLATALHQQQLMTQQAALQQKPTMAAGQQPQPQPAAAPQPAPAQEPAIQAPVRQQPKVQTTPPPAVQGQKVGSLTPPSSPKTQRAGHRRILSDVTHSAVFGVPASKSTQLLQAAAAEASLNKSKSATTTPSGSPRTSQQNVYNPSEGSTWNPFDDDNFSKLTAEELLNKDFAKLGEGKHPEKLGGSAESLIPGFQSTQGDAFATTSFSAGTAEKRKGGQTVDSGLPLLSVSDPFIPLQVPDAPEKLIEGLKSPDTSLLLPDLLPMTDPFGSTSDAVIEKADVAVESLIPGLEPPVPQRLPSQTESVTSNRTDSLTGEDSLLDCSLLSNPTTDLLEEFAPTAISAPVHKAAEDSNLISGFDVPEGSDKVAEDEFDPIPVLITKNPQGGHSRNSSGSSESSLPNLARSLLLVDQLIDL [AAK1] | 0.192 | 50.9 | 51.8 | -0.0894 | 0.691 | 0.746 |
| MGASARLLRAVIMGAPGSGKGTVSSRITTHFELKHLSSGDLLRDNMLRGTEIGVLAKAFIDQGKLIPDDVMTRLALHELKNLTQYSWLLDGFPRTLPQAEALDRAYQIDTVINLNVPFEVIKQRLTARWIHPASGRVYNIEFNPPKTVGIDDLTGEPLIQREDDKPETVIKRLKAYEDQTKPVLEYYQKKGVLETFSGTETNKIWPYVYAFLQTKVPQRSQKASVTP [AK3] | 0.43 | 54.3 | 54.2 | 0.00633 | -1.02 | -2.48 |
| MNAGSDPVVIVSAARTIIGSFNGALAAVPVQDLGSTVIKEVLKRATVAPEDVSEVIFGHVLAAGCGQNPVRQASVGAGIPYSVPAWSCQMICGSGLKAVCLAVQSIGIGDSSIVVAGGMENMSKAPHLAYLRTGVKIGEMPLTDSILCDGLTDAFHNCHMGITAENVAKKWQVSREDQDKVAVLSQNRTENAQKAGHFDKEIVPVLVSTRKGLIEVKTDEFPRHGSNIEAMSKLKPYFLTDGTGTVTPANASGINDGAAAVVLMKKSEADKRGLTPLARIVSWSQVGVEPSIMGIGPIPAIKQAVTKAGWSLEDVDIFEINEAFAAVSAAIVKELGLNPEKVNIEGGAIALGHPLGASGCRILVTLLHTLERMGRSRGVAALCIGGGMGIAMCVQRE [ACAT2] | 0.305 | 58.4 | 58.2 | -0.0395 | -0.261 | -1.17 |
| MPSDLAKKKAAKKKEAAKARQRPRKGHEENGDVVTEPQVAEKNEANGRETTEVDLLTKELEDFEMKKAAARAVTGVLASHPNSTDVHIINLSLTFHGQELLSDTKLELNSGRRYGLIGLNGIGKSMLLSAIGKREVPIPEHIDIYHLTREMPPSDKTPLHCVMEVDTERAMLEKEAERLAHEDAECEKLMELYERLEELDADKAEMRASRILHGLGFTPAMQRKKLKDFSGGWRMRVALARALFIRPFMLLLDEPTNHLDLDACVWLEEELKTFKRILVLVSHSQDFLNGVCTNIIHMHNKKLKYYTGNYDQYVKTRLELEENQMKRFHWEQDQIAHMKNYIARFGHGSAKLARQAQSKEKTLQKMMASGLTERVVSDKTLSFYFPPCGKIPPPVIMVQNVSFKYTKDGPCIYNNLEFGIDLDTRVALVGPNGAGKSTLLKLLTGELLPTDGMIRKHSHVKIGRYHQHLQEQLDLDLSPLEYMMKCYPEIKEKEEMRKIIGRYGLTGKQQVSPIRNLSDGQKCRVCLAWLAWQNPHMLFLDEPTNHLDIETIDALADAINEFEGGMMLVSHDFRLIQQVAQEIWVCEKQTITKWPGDILAYKEHLKSKLVDEEPQLTKRTHNV [ABCF2] | -0.296 | 51.8 | 51.2 | 0.116 | 1.11 | 0.19 |
| MDLRVGQRPPVEPPPEPTLLALQRPQRLHHHLFLAGLQQQRSVEPMRLSMDTPMPELQVGPQEQELRQLLHKDKSKRSAVASSVVKQKLAEVILKKQQAALERTVHPNSPGIPYRTLEPLETEGATRSMLSSFLPPVPSLPSDPPEHFPLRKTVSEPNLKLRYKPKKSLERRKNPLLRKESAPPSLRRRPAETLGDSSPSSSSTPASGCSSPNDSEHGPNPILGSEALLGQRLRLQETSVAPFALPTVSLLPAITLGLPAPARADSDRRTHPTLGPRGPILGSPHTPLFLPHGLEPEAGGTLPSRLQPILLLDPSGSHAPLLTVPGLGPLPFHFAQSLMTTERLSGSGLHWPLSRTRSEPLPPSATAPPPPGPMQPRLEQLKTHVQVIKRSAKPSEKPRLRQIPSAEDLETDGGGPGQVVDDGLEHRELGHGQPEARGPAPLQQHPQVLLWEQQRLAGRLPRGSTGDTVLLPLAQGGHRPLSRAQSSPAAPASLSAPEPASQARVLSSSETPARTLPFTTGLIYDSVMLKHQCSCGDNSRHPEHAGRIQSIWSRLQERGLRSQCECLRGRKASLEELQSVHSERHVLLYGTNPLSRLKLDNGKLAGLLAQRMFVMLPCGGVGVDTDTIWNELHSSNAARWAAGSVTDLAFKVASRELKNGFAVVRPPGHHADHSTAMGFCFFNSVAIACRQLQQQSKASKILIVDWDVHHGNGTQQTFYQDPSVLYISLHRHDDGNFFPGSGAVDEVGAGSGEGFNVNVAWAGGLDPPMGDPEYLAAFRIVVMPIAREFSPDLVLVSAGFDAAEGHPAPLGGYHVSAKCFGYMTQQLMNLAGGAVVLALEGGHDLTAICDASEACVAALLGNRVDPLSEEGWKQKPNLNAIRSLEAVIRVHSKYWGCMQRLASCPDSWVPRVPGADKEEVEAVTALASLSVGILAEDRPSEQLVEEEEPMNL [HDAC7] | 0.129 | 53 | 52.3 | 0.0342 | 0.178 | -0.224 |
| UBR5 | -0.142 | 47.5 | 49.8 | -0.155 | 1.78 | 5.42 |
| METQLQSIFEEVVKTEVIEEAFPGMFMDTPEDEKTKLISCLGAFRQFWGGLSQESHEQCIQWIVKFIHGQHSPKRISFLYDCLAMAVETGLLPPRLVCESLINSDTLEWERTQLWALTFKLVRKIIGGVDYKGVRDLLKVILEKILTIPNTVSSAVVQQLLAAREVIAYILERNACLLPAYFAVTEIRKLYPEGKLPHWLLGNLVSDFVDTFRPTARINSICGRCSLLPVVNNSGAICNSWKLDPATLRFPLKGLLPYDKDLFEPQTALLRYVLEQPYSRDMVCNMLGLNKQHKQRCPVLEDQLVDLVVYAMERSETEEKFDDGGTSQLLWQHLSSQLIFFVLFQFASFPHMVLSLHQKLAGRGLIKGRDHLMWVLLQFISGSIQKNALADFLPVMKLFDLLYPEKEYIPVPDINKPQSTHAFAMTCIWIHLNRKAQNDNSKLQIPIPHSLRLHHEFLQQSLRNKSLQMNDYKIALLCNAYSTNSECFTLPMGALVETIYGNGIMRIPLPGTNCMASGSITPLPMNLLDSLTVHAKMSLIHSIATRVIKLAHAKSSVALAPALVETYSRLLVYMEIESLGIKGFISQLLPTVFKSHAWGILHTLLEMFSYRMHHIQPHYRVQLLSHLHTLAAVAQTNQNQLHLCVESTALRLITALGSSEVQPQFTRFLSDPKTVLSAESEELNRALILTLARATHVTDFFTGSDSIQGTWCKDILQTIMSFTPHNWASHTLSCFPGPLQAFFKQNNVPQESRFNLKKNVEEEYRKWKSMSNENDIITHFSMQGSPPLFLCLLWKMLLETDHINQIGYRVLERIGARALVAHVRTFADFLVYEFSTSAGGQQLNKCIEILNDMVWKYNIVTLDRLILCLAMRSHEGNEAQVCYFIIQLLLLKPNDFRNRVSDFVKENSPEHWLQNDWHTKHMNYHKKYPEKLYFEGLAEQVDPPVQIQSPYLPIYFGNVCLRFLPVFDIVIHRFLELLPVSKSLETLLDHLGGLYKFHDRPVTYLYNTLHYYEMHLRDRAFLKRKLVHAIIGSLKDNRPQGWCLSDTYLKCAMNAREENPWVPDDTYYCRLIGRLVDTMAGKSPGPFPNCDWRFNEFPNPAAHALHVTCVELMALAVSGKEVGNALLNVVLKSQPLVPRENITAWMNAIGLIITALPEPYWIVLHDRIVSVISSPSLTSETEWVGYPFRLFDFTACHQSYSEMSCSYTLALAHAVWHHSSIGQLSLIPKFLTEVLLPIVKTEFQLLYVYHLVGPFLQRFQQERTRCMIEIGVAFYDMLLNVDQCSTHLNYMDPICDFLYHMKYMFTGDSVKEQVEKIICNLKPALKLRLRFITHISKMEPAAVPPQAMNSGSPAPQSNQVPVSLPVTQ [MED23] | -0.217 | 50.5 | 51.1 | -0.141 | 1.35 | 1.94 |
